The labels stand for the following.
B1: His-β-arrestin-1-WT [not stated] / GST-PLCγ-SH3 [human] (parent complex)
chain 1: MGDKGTRVFKKASPNGKLTVYLGKRDFVDHIDLVDPVDGVVLVDPEYLKERRVYVTLTCAFRYGREDLDVLGLTFRKDLFVANVQSFPPAPEDKKPLTRLQERLIKKLGEHAYPFTFEIPPNLPCSVTLQPGPEDTGKACGVDYEVKAFCAENLEEKIHKRNSVRLVIRKVQYAPERPGPQPTAETTRQFLMSDKPLHLEASLDKEIYYHGEPISVNVHVTNNTNKTVKKIKISVRQYADICLFNTAQYKCPVAMEEADDTVAPSSTFCKVYTLTPFLANNREKRGLALDGKLKHEDTNLASSTLLREGANREILGIIVSYKVKVKLVVSRGGLLGDLASSDVAVELPFTLMHPKPKEEPPHREVPENETPVDTNLIELDTNDDDIVFEDFARQRLKGMKDDKEEEEDGTGSPQLNNR
chain 2: TFKCAVKALFDYKAQREDELTFIKSAIIQNVEKQEGGWWRGDYGGKKQLWFPSNYVEEMVN

The first experiment covers variants of B1. The experiment can be described thus: GST pull down assay (quantified western blot); 5 μM GST-PLCγ-SH3, 5 μM β-arrestin-1, with GRK6pp; parent: 2.5; read off a plot.
Turning to chain 1 P121A, the screen value is ~2.7 fold.

Take chain 1 P180A: the screen value is ~2.6 fold.

For the variant chain 1 P88A, chain 1 P89A, chain 1 P91A, the screen value is ~1.1 fold.

Variants of B1 are the subject of another experiment. The experiment can be described thus: GST pull down assay (quantified western blot); 5 μM GST-PLCγ-SH3, 5 μM β-arrestin-1, without GRK6pp; parent: 1; read off a plot.
Regarding chain 1 P121A, the screen value is ~1.1 fold.

In the case of chain 1 P180A, the screen value was ~1.2 fold.

As for chain 1 P88A, chain 1 P89A, chain 1 P91A, the screen value is ~1.1 fold.

The record behind these values is PMC5309860 (2017).
